Experimental findings from PMC3093654 are described below.

The series addresses alpha-thrombin (UniProt P00734;P00734 328-363;364-622). The experiment in a line: SPR imaging.

Consider AGTCCGTGGTAGGGCAGGTTGGGGTGACTTTTTTTTTTTTTTTT (ssDNA, 3'-NH2, surface-attached to pGlu-MUAM on gold) [Da thrombin aptamer], for which the binding result is listed as “binds”.
